Results published in patent US20250250335A1 (SHENGHE CHINA BIOPHARMACEUTICAL, published 2025).

How the values were obtained:
[1] = target: T1, human CEACAM6-his (ACRO CE6-H5223) (human, UniProt P40199 35-320); assay: ELISA on coated human CEACAM6, OD450
T1 construct: Bought protein; not shown: His tag
T1 sequence (looked up): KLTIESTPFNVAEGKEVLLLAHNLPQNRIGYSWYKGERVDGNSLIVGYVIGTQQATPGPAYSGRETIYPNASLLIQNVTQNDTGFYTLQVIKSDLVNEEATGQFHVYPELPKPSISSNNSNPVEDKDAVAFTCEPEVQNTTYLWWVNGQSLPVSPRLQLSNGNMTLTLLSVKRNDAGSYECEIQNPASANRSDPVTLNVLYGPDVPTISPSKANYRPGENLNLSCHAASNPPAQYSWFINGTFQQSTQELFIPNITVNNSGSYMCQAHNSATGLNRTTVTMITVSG
Procedure: The binding activity of the antibodies to human CEACAM5, human CEACAM6, and human CEACAM6 (AB) proteins was detected by ELISA. The plate coated with proteins was incubated at 4° C. overnight, and the 96-well ELISA plate blocked with 2% PBS-BSA was added with the antibody to be detected and incubated at 37° C. for 1 h. After washing 3 times with PBS containing 0.05% Tween, the absorbance value of each well was read at wavelength 450 nm with the gradient-diluted mouse-derived candidate antibody as the primary antibody and anti-mouse-IgG-FC-HRP as the secondary antibody, and the absorbance value of each well was read at wavelength 450 nm after the TMB color development.

[2] = target: T2, human CEACAM5-his (ACRO CE5-H5226) (human, UniProt P06731 35-685); assay: ELISA on coated human CEACAM5, OD450
T2 construct: Bought protein; not shown: His tag
T2 sequence (looked up): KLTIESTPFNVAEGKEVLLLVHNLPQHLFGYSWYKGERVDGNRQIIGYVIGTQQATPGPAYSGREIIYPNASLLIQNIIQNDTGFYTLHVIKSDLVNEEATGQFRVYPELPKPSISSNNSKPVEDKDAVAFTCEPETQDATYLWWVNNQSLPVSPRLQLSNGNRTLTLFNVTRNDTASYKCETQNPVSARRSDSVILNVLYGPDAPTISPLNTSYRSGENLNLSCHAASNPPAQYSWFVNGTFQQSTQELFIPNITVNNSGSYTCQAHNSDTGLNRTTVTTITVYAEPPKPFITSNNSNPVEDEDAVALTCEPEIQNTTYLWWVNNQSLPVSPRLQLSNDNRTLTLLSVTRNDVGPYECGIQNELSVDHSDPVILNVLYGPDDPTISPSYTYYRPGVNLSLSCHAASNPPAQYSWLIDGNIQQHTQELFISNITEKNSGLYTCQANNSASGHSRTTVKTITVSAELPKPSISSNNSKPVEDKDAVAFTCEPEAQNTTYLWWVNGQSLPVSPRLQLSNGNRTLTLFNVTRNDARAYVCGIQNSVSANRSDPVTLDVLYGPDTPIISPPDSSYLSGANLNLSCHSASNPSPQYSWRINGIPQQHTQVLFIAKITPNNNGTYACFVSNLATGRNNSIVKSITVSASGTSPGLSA
Procedure, shortened: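 Plates coated overnight at 4 °C with antigen and blocked with 2% BSA in PBS received gradient-diluted mouse candidate antibodies for 1 h at 37 °C. Binding was detected with anti-mouse IgG Fc-HRP and TMB, read as OD450.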

binding result [1]: binds
binding result [2]: binds
B1: Antibody 14 (antibody, V domains shown)
VH: EVQLVETGGGLVQPKGSLKLSCAASGFSFNTNAMNWVRQAPGKGLEWVARIRSKSNNYATYYADSVKDRFTISRDDSQSMLYLQMNNLKTEDTAMYYCVSFLSLMDYWGQGTSVTVSS
VL: QIVLTQSPAIMSASPGEKVTMTCSASSSISYMHWYQQKPGTSPKRWIYDTSKLASGVPARFSGSGSGTSYSLTISSMEAEDAATYYCHQRSSYPWTFGGGTKLEIK
notes: Mouse-derived hybridoma antibody; also called mouse-derived antibody 14
